Source: PMC10643903 (Journal of Innate Immunity, 2022)

Experiments:
[1] = biological target: recombinant full-length human C6 with a C-terminal 10xHis-tag (human, UniProt P13671 22-934); assay: BLI
[2] = biological target: human C6 FIM1-2 fragment (residues 766–934) with an N-terminal 10xHis-tag (human, UniProt P13671 766-934); assay: BLI
dog C6 FIM1-2 fragment = biological target: T1, dog C6 FIM1-2 fragment (Canis lupus familiaris); assay: BLI
T1 chain: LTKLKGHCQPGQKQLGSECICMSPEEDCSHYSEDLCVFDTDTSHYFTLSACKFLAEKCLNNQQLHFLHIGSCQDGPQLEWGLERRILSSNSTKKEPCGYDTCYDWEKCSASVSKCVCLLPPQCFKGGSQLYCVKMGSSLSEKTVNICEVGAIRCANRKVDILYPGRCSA

[3] = biological target: Macaca C6 FIM1-2 fragment (Macaca fascicularis (entry of printed …, UniProt A0A2K5W3S5)); assay: BLI
[4] = biological target: human C6 FIM1-2 fragment (residues 766–934) with an N-terminal 10xHis-tag (human, UniProt P13671); assay: BLI
[5] = biological target: pig (Sus scrofa) C6 FIM1-2 fragment (Sus scrofa, UniProt A0SEH0); assay: BLI
[6] = biological target: biotinylated AVI-tagged full-length human C6 (Homo sapiens, UniProt P13671, biotin on the AVI-tag (BirA ligase)); assay: BLI
[7] = biological target: C6∆FIM1-2 (1–762) with a C-terminal His-tag (human, UniProt P13671); assay: SEC
C6∆FIM1-2 (1–762) with a C-terminal His-tag, sequence (P13671 22-762): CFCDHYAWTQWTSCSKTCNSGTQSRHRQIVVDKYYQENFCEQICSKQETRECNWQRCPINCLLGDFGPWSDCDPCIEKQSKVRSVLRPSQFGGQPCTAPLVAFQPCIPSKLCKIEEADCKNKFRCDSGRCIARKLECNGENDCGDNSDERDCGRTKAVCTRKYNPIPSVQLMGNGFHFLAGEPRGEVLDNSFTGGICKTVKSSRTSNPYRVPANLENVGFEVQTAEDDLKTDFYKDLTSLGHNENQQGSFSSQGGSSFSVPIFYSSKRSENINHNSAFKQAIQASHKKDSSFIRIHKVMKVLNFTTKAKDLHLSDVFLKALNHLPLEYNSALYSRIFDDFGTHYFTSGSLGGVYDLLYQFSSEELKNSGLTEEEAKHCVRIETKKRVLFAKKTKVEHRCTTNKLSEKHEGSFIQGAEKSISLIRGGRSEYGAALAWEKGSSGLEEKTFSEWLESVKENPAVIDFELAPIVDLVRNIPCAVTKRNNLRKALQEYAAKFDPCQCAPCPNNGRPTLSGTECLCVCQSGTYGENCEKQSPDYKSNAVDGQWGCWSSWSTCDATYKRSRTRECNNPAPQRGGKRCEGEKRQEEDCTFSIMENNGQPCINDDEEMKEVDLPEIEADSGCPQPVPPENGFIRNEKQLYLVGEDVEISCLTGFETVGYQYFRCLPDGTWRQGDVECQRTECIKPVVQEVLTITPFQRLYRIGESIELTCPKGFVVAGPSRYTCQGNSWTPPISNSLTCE

biotinylated AVI-tagged full-length human C6, sequence (P13671 22-934): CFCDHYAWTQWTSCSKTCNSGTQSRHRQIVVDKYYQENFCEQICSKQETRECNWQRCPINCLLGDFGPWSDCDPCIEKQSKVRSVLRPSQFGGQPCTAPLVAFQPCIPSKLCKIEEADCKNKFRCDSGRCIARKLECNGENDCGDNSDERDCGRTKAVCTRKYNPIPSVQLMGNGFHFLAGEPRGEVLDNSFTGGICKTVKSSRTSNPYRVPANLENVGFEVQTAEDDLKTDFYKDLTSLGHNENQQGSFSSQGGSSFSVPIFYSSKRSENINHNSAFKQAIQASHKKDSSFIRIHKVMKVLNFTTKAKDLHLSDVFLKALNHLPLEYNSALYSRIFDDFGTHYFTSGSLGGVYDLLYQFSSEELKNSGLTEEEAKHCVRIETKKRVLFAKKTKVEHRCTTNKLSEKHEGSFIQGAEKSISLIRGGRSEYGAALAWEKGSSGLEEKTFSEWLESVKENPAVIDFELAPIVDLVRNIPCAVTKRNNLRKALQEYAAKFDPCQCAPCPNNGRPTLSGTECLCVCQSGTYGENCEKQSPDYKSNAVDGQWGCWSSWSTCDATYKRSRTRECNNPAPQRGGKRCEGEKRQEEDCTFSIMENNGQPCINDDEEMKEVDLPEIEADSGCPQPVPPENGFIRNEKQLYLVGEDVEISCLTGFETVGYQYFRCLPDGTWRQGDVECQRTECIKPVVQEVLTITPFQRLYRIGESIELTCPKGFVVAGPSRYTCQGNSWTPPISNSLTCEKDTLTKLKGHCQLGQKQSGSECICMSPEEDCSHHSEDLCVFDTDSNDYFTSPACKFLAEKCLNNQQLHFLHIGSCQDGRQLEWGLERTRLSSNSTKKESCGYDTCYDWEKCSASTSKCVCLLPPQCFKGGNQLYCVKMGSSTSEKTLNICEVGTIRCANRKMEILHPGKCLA
recombinant full-length human C6 with a C-terminal 10xHis-tag, sequence (P13671 22-934): as above
human C6 FIM1-2 fragment (residues 766–934) with an N-terminal 10xHis-tag (human, UniProt P13671 766-934), sequence (P13671 766-934): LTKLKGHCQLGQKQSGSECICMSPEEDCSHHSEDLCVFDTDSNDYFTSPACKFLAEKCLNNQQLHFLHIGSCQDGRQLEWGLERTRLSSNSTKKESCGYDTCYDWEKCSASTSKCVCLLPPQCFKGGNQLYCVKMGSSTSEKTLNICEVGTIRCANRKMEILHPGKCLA
human C6 FIM1-2 fragment (residues 766–934) with an N-terminal 10xHis-tag (human, UniProt P13671), sequence (P13671 766-934): as above

B1: human C5 C345c domain (residues 1528–1676) (domain or fragment, UniProt P01031 1528-1676, looked up)
chain: VEADCGQMQEELDLTISAETRKQTACKPEIAYAYKVSITSITVENVFVKYKATLLDIYKTGEAVAEKDSEITFIKKVTCTNAELVKGRQYLIMGKEALQIKYNFSFRYIYPLDSLTWIEYWPRDTTCSSCQAFLANLDEFAEDIFLNGC
Question: B1 was tested. Which Kd [1] did it give?
Answer: The Kd was 10 to 20 nM.

Question: What about the Kd [2] of the same binder?
Answer: The Kd was 5 nM.

B2: CP010 Fab (Fab, V domains shown)
VH: EVQLVESDGGLVQPGGSLKLSCAASGFTFSDYYMAWVRQGPGKGLEWVATINYDGSSTYYRESVKGRFTISRDNAKNTLYLQMNSLRAEDTATYYCARPSTEALFAYWGHGTLVTVSS
VL: DVVLTQTPSTLSVTPGQPASISCRSSQSLLNDVGNTYLYWYLQKPGQSPQLLIYLVSDLGSGVPNRFSGSGSGTDFTLKISRVEAEDVGIYYCMQASHAPYTFGQGTNLEIK
Question: Which Kd (dog C6 FIM1-2 fragment) does the source give for B2 here?
Answer: The Kd was about 5 nM.

Question: And the Kd [3]?
Answer: The Kd was about 5 nM.

Question: What about the Kd [4] of the same binder?
Answer: Its Kd is 2.8 nM.

Question: And the Kd [5]?
Answer: The Kd was about 5 nM.

Question: And the Kd [6]?
Answer: The Kd was 0.3 nM.

B3: CP010, fully humanized version of 7E5 with a human IgG4 S228P constant region (antibody, V domains shown)
VH: B2 VH
VL: B2 VL
Question: Does B3 bind [7]?
Answer: Result: no binding
